B1: diketide-ACP2(Ø): diketide on isolated ACP2 domain without linker region (conjugate)
chain: HHHHHHDRLAGLPRAERTAELVRLVRTSTATVLGHDDPKAVRATTPFKELGFDSLAAVRLRNLLNAATGLRLPSTLVFDHPNASAVAGFLDAELG
B2: holo-ACP4(4): phosphopantetheinylated DEBS ACP4 domain with its natural C-terminal linker (protein)
chain: HHHHHHNVVDRLAGRSESDQVAGLAELVRSHAAAVSGYGSADQLPERKAFKDLGFDSLAAVELRNRLGTATGVRLPSTLVFDHPTPLAVAEHLRDRLFAASPAVDIGDRLDELEKALEALSAEDGHDDVGQRLESLLRRWNSRRADAPSTSAISEDASDDELFSMLDQRFGGGEDL
B3: diketide-eryLDD(Ø): diketide on the DEBS loading didomain with no C-terminal linker (conjugate)
chain: MSGPRSRTTSRRTPVRIGAVVVASSTSELLDGLAAVADGRPHASVVRGVARPSAPVVFVFPGQGAQWAGMAGELLGESRVFAAAMDACARAFEPVTDWTLAQVLDSPEQSRRVEVVQPALFAVQTSLAALWRSFGVTPDAVVGHSIGELAAAHVCGAAGAADAARAAALWSREMIPLVGNGDMAAVALSADEIEPRIARWDDDVVLAGVNGPRSVLLTGSPEPVARRVQELSAEGVRAQVINVSMAAHSAQVDDIAEGMRSALAWFAPGGSEVPFYASLTGGAVDTRELVADYWRRSFRLPVRFDEAIRSALEVGPGTFVEASPHPVLAAALQQTLDAEGSSAAVVPTLQRGQGGMRRFLLAAAQAFTGGVAVDWTAAYDDVGPNPALCRSSRRPRRKTSRPSPASTGTRHRTCCERLLAVVNGETAALAGREADAEATFRELGLDSVLAAQLRAKVSAAIGREVNIALLYDHPTPRALAEALAAGT
modifications: non-natural residues
notes: diketide on the DEBS loading didomain with no C-terminal linker

Assays:
Format in all cases: biochemical
(5)M2+TE [1] = biological target: T1, (5)M2+TE (Saccharopolyspora erythraea, UniProt Q03131+Q03133); experiment: Substrate transfer and elongation assay, acceptor DEBS module 2; conditions: 20 μM substrate, 2 hours
T1 construct: The protein was, in each case, a single module of the DEBS PKS fused to the thioesterase (TE) termination region of module 6; first 39 amino acids of module 5 (N-ERL); made in house; host or cells: E. coli (BL21(DE3) with sfp)
Experimental: (§1) Substrate transfer and elongation assays. Qualitative assays were performed with a diketide-ACP or diketide-PCP substrate either taken directly from the so phosphopantetheinlyation reaction or after further purification of the substrate. These assays were performed with 20 μM diketide-ACP/PCP substrate for 2 hours in the following reaction conditions: 1 μM acceptor module, 0.5 mM ^14C-methylmalonyl CoA, 4 mM NADPH in buffer C, 30° C. After quenching by addition of 250 μL EtOAc and vortexing, the products were extracted with 2×250 μL EtOAc, resolved on a silica gel TLC plate, and visualized on a Packard InstantImager.
(§2) The kinetics of substrate transfer at the module 2-module 3 interface followed by elongation and product release were examined as a function of the k60 μM and kcat/KM values of the overall reaction. […] In many cases, the k60μm values approximate the maximal overall turnover rates, as determined by back calculating the KM value for the reactions. True saturation kinetics were not practical because of the technical limitations (e.g., solubility) and limited supply associated with high molecular weight substrates such as diketide-ACP and diketide-PCP. kcat/KM values were determined by competitive assay of the substrate of interest against a substrate with a known kcat/KM value, as previously described (Wu, et al., (2001) J. Am. Chem. Soc. 123, 6465-6474). […]

(5)M6+TE = biological target: T2, (5)M6+TE (Saccharopolyspora erythraea, UniProt Q03133, DEL53-1503); experiment: Substrate transfer and elongation assay, acceptor DEBS module 6; conditions: 20 μM substrate, 2 hours
T2 construct: The protein was, in each case, a single module of the DEBS PKS fused to the thioesterase (TE) termination region of module 6; first 39 amino acids of module 5 (N-ERL); made in house; host or cells: E. coli (BL21(DE3) with sfp)
Experimental: as §1, §2

(5)M2+TE [2] = biological target: T1, (5)M2+TE; experiment: Labeling of holo-ACP4(4) with 14C-2a mediated by (5)M2+TE (back-transfer); conditions: 20 μM holo-ACP4(4), 1 mM 14C-2a, with and without 1 μM (5)M2+TE
Experimental: Labeling of Holo-ACP4(4) with ^14C-2a Mediated by (5)M2+TE. Holo-ACP4(4) (20 μM) was incubated with 1 mM [1-^14C]-labeled 2a (custom synthesized by Amersham Pharmacia, specific activity 55 mCi/mmol) and 1 μM (5)M2+TE in reaction buffer C for 10 min at 30° C. The protein was precipitated with 75% acetone/H2O for 5 min at −80° C. After washing the pellet with 6.25% (w/v) TCA to remove excess salts followed by 500 μL of 75% acetone/H2O to remove residual, unbound 14 C-2a, the precipitated protein was resuspended in 8 μL of buffer A and 4 μL of SDS sample buffer, and resolved on a 420% SDS-PAGE gradient gel (Bio-Rad). The proteins were visualized with Coomassie blue stain and dried, and the radioactivity was detected either on a Packard InstantImager or by exposing the gel to X-ray film.

Molecule | qualitative transfer of diketide to (5)M2+TE ((5)M2+TE [1]) | qualitative transfer of diketide to (5)M6+TE ((5)M6+TE) | radiolabeling of the ACP by 14C-2a ((5)M2+TE [2])
B1 | able to channel the diketide substrate | able to channel the diketide substrate | 
B2 |  |  | radiolabeled only in the reaction containing (5-M2+TE
B3 | able to channel the diketide substrate | able to channel the diketide substrate | 

From patent US20060110789A1, “Methods to mediate polyketide synthase module effectiveness” (priority 2002, published 2006)
